Our source for the Kd values is US20240343820A1.

B1: 23E1 (antibody, V domains shown)
VH: EVQLQQSGPVLVKPGPSVKISCKASGFTFTDYYMHWVKQSHGKSLEWIGLVYPYNGGTSYNQKFKGKATLTVDTSSSTAYMELNSLTSEDSAVYYCARRGQRVWYFDVWGTGTTVTVSS
VL: DIQMTQSPSSLSASLGGKVTITCKASQDINKYIAWYQHKPGKGPRLLIHYTSTLQPGIPSRFSGSGSGRDYSFSISNLEPEDIATYYCLQYDNLYTFGGGTKLEIK
B2: 25B2 (antibody, V domains shown)
VH: QIQLVQSGPELKKPGETVKISCKASGYTFTTYGMSWVKQAPGKGLKWMGWINTYSGVPTYADDFKGRFAFSLETSASTAYLQINNLKNEDTATYFCARTYYGNYFDYWGQGTTLTVSS
VL: DIQMTQSPSSLSASLGGKVTITCKASQDINKYIAWYQHKPGKGPRLLIHYTSTLQPGIPSRFSGSGSGRDYSFSISNLEPEDIATYYCLQYDNLYTFGGGTKLEIK
B3: 24C12 (antibody, V domains shown)
VH: QVQLQQSGAELMKPGASVKLSCKATGHTFTGYWIEWVKQRPGHGLEWIGEILPGSGSTNYNEKFKGKATFTADTSSNTAYMQLSSLTTEDSAIYYCAREGFAYWGQGTLVTVSA
VL: DIVMTQSHKFMSTSVGDRVSITCKASQDVGIAVAWYQQKPGQSPKLLIYWASTRHTGVPDRFTGSGSGTDFTLTISNVQSEDLADYFCQQYSSYPYTFGGGTKLEIK
B4: 22H5 (antibody, V domains shown)
VH: DVQLQESGPGMVKPSQSLSLTCTVTGYSITSGYDWHWIRHFPGNKLEWMGYISYSGSTNYNPSLKSRISITHDTSKNHFFLKLNSVTTEDTATYYCAREGYSNYFDSWGQGTTLTVSS
VL: SIVMTQTPKFLLVSAGDRVTITCKASQSVSNDVAWYQQKPGQSPKLLIFYASNRYTGVPDRFTGSGYGTDFTFTISTVQAEDLAVYFCQQDYSSPLAFGAGTKLELK
B5: 23C11 (antibody, V domains shown)
VH: QVQLQQPGAELVRPGSSVKLSCKASGYTFTSYWMHWVKQRPIQGLEWIGNIDPSDSETHYNQKFKDKATLTVDKSSSTAYMQLSSLTSEDSAVYYCARAGRVFYYAMDYWGQGTSVTVSS
VL: DIQMTQTTSSLSASLGDRVTISCRASQDISNYLNWYQQKPDGTVKLLIYYTSRLHSGVPSRFSGSGSGTDYSLTISNLEQEDIATYFCQQGNTLYTFGGGTKLEIK
B6: 29F8 (antibody, V domains shown)
VH: QIQLVQSGPELKKPGETVKISCKASGYTFTTYGMSWVKQAPGKGLKWMGWINTYSGVPTYADDFKGRFAFSLETSASTAYLQINNLKNEDSATYFCARYYYGSNYDYWGQGTTLTVSS
VL: DIQMTQSPASLSASVGETVTITCRASENIYSYLAWYQQKQGKSPQLLVNNAKTLAEGVPSRFSGSGSGTQFSLKINSLQPEDFGSYYCQHHYGSPPTFGSGTKLEIK
B7: 29F1 (antibody, V domains shown)
VH: QIQLVQSGPELKKPGETVKISCKASGYTFTTYGMSWVKQAPGKGLKWMGWINTYSGVPTYADDFKGRFAFSLETSASTAYLQINNLKNEDTATYFCARFYYGSSFDYWGQGTTLTVSS
VL: DIQMTQSPASLSASVGETVTITCRASENIYSYLAWYQQKQGKSPQLLVYNAKTLAEGVPSRFSGSGSGTQFSLKINSLQPEDFGSYYCQHHYGTPLTFGAGTKLELK
B8: 24C7 (antibody, V domains shown)
VH: QVQLQQSGPELVKPGASVKISCKASGYSFTSYYIHWVKQRPGQGLEWIGWIYPGSGNTKYNEKFKGKATLTADTSSSTAYMQLSSLTSEDSAVYYCARCVLLDYFDYWGQGTTLTVSS
VL: DIQMTQSPSSLSASLGERVSLTCRASQEISGYLSWLQQKPDGTIKRLIYAASTLDSGVPKRFSGSRSGSDYSLTISSLESEDFADYYCLQYASYPYTFGGGTKLEIK
B9: 25F10 (antibody, V domains shown)
VH: QVHLQQSGPELVKPGASVKISCKASGYSFTSYYIHWVKQRPGQGLEWIGWIYPRSGNTNYNEKFKDKATLAADTSSSAAYMQLSSLTSEDSAVYYCGRSDFYYGSDYWGQGTTLTVSS
VL: DIQMTQSPSSLSASLGERVSLTCRASQEISGYLGWLQQKPDGTIKRLIYAASTLDSGVPRRFSGSRSGSDYSLTFSSLESEDFADYYCLQYASYPWTFGGGTKLEIK

For this assay, the target named is anti-CD20 scFv-14. Description: Octet (BLI) equilibrium binding, hybridoma supernatant; antigen format not stated. For orientation: In BLI a coated tip is dipped into the sample, and binding shifts an interference pattern.
Turning to B1, the dissociation constant Kd (usually the constant that tells how readily two partners part at equilibrium) stood at 3.28 nM.
In turn, B2 showed a Kd of 0.382 nM.
For the molecule B3, the equilibrium dissociation constant (Kd) came out at 0.00138 nM.
The value for B4 was 0.633 nM; that for B5 was 3.72 nM; that for B6 was 0.00131 nM.
Turning to B7, the Kd was found to be 0.0534 nM.
Molecule B8 showed a Kd of 3.9 nM.
The same measure for B9: 0.00408 nM.
